Assay results: the nanobody polyreactivity screen of Harvey et al. (2022)

Test: yeast display, Sf9 membrane polyspecificity reagent, FACS + sequencing; frameworks hold sequencing errors
Outline: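 After 36–48 hours of galactose induction, yeast (Saccharomyces cerevisiae BJ5465) displaying a synthetic nanobody library were stained at 4 °C for 1 hour with 10% biotinylated, detergent-solubilized Sf9 membrane reagent. Streptavidin microbeads enriched the stained cells before FACS sorting into low and high (top ~1%) gates on anti-HA and streptavidin fluorescence. Each clone's polyreactivity label reflects its gate of origin.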

Sequence | polyreactivity (PSR sort gate)
QVQLVESGGGLVQAGGSLRLSCAASGSIFIYYAMGWYRQAPGKEREMVADITFSAGTNTYYADSVKGRFTISRDNAKNTVYLQKNSLKPEDTAVYYCNADRGFIGSITEYDYWGQGTQVTVSS | low polyreactivity
QVQLVESGGGLVQAGGSLRLSCAASGLTFGPYAMGWYRQAPGKERELVAAITSGGRTYYADSVKGRFTISRDNAKNTVYLKMNSLKPEDTAVYYCAADPLSGYDYWGQGTQVTVSS | low polyreactivity
KVQLVESGGGLVQAGGSLRLSCAASGSIFTYYAMGWDRQAPGKERELVAAISIGGRTDYADSVKGRFTISRDNAKNTVSLQMNSLKPEDTAVYYCVAKGHLDSGGYEYYYWRQGTQVTVSS | low polyreactivity
QVQLVESGGGLVQAGGSLRLSCAASGFTFPEYSMGWYRQAPGKERELVAAITRRGTTTYYADSVKGRFTISRYTAKNTVYLQMNILKPEDTAVYYCAALAWSAYDYWGQGTQVTVSS | high polyreactivity
QVQLVESGGGLVQAGGSLRLSCAASGFTFRTYAMGWYRQAPGKERELVAAISRSGGSTDYADSVKGRFTISRDTAKNTVYLQMNSLKPEHTAVYYCNAVRRAEYDYWGQGTQVTVSS | high polyreactivity
QVQLVESGGGLVQAGGSLRLSCAASGGTFYSYAMGWYRQAPGKEREFVAAITYGGGSTYYADSEKGRFTISRDNAKNSVYLQKNSLKPEDTAVYYCNARRYGSRLGERYYYWGQGTQVTVSS | high polyreactivity
QVHLVESGGGLVQAGGSLRLSCAASGYTFGHYAMGWYRQAPGKERELVAVITSGGSTNYADSVKGRFTISRDNAKNTVYLQMNSLKPEDTAVYYCAADLYFYYVWIRDYWGQGTQVTVSS | low polyreactivity
QVQLVESGGGLVQAGGSLRLSCAASGGIFTDYTMGWYRQAPGKERELVAAITWTGGSTYYADSVKGRFTISRDNAKNSVYLQMNSLKPEDTAVYYCAADEYWVNLDYWGQGTQVTVSS | low polyreactivity
QVQLVESGGGLVQAGGSLRLSCAASGRISLFNAMGWYRQAPGKERELVAAITYTGGSTYYADSVKGRFTISRDNAKNTVYLQMNSLKPEDTAVYYCAAEYYYVYTYDYWGQGTQVTVSS | high polyreactivity
QDQVVESGGGLVQAGGSVRLSCADSGSIFWRNAMGWYRQAPGKEREWVAAITSGGTTNYADSVKGRFTLSRDNAKNTVYLQLNTQKPEVTAGDYCATGASDLRRYDHPHSDVDYWGQGTQVTVSA | low polyreactivity
QVQLVESGGGLVQAGGSLRLSSAASGRIFAHNAMGWSRQAPGKERELVAAITWSGGSTYYADSVKGRFTISRDNAKNTVYLQMNSLKPEDTAVYYCNTDSHGHLYIYWGQGNQVTVSS | low polyreactivity
QDHLVESGGGLVQAGGSLRLSCAASGSIFRRNAMGWYRQAPGKERELVAAIRYSGDRTYYADSVKGRFTISRDNAKNTVYLQMNSLKPEDTAVYYCAAKRSVSYYGYYYWGQGSQVTVSS | high polyreactivity
QVQLVESGGGLVQAGGSLRLSCAASGIIFPYYAMGWYRPAPGKERELVAAITSSGGSTYYADSVKGRFTISRDNAKNTVYLQMNSLKPEDSAVYYCAAQTWGHGGDSWGQGTQVTVSS | high polyreactivity
QVQLVESGGGLVQAGGSLRLSCDASGIIFRGNSMGWYRQAPGKERELVAAISRSGRTNYADSVKGSFTISRDNAKNTVYLQMYSLKPEDTAVYYCAVDKRYGRVFGRDYDYWGQGTQVTESS | high polyreactivity
QVQLVESGGGLVQAGGSLRLSSADSGRTFYGNAMGWYRQSPGKERELVAAISKRGGNTYYADSVKWRFTISRDNAKNTVYLQMNSLKPEDTAVYYCARQARTPSSWYIYDSWGQGTQVTVSS | high polyreactivity
QVQLVESGGGLVQAGGSLRLSCSASGSISYYNAMAWYRQAPGKERELVASITRRGGTTNYAESVKGRFSISRDNAKHTVYLQMNSLKPEDTAVYNCNAEYPYWTPDYNYRFDYWGQGTQVTVSS | high polyreactivity
